The values below come from patent US20110020344A1 (US Dept. of Health and Human Services, published 2011).

The target of assay [1] is T1, Soluble CD22 (PeproTech) (human, UniProt P20273 20-687, limits assumed).
T1 construct: Bought from PeproTech; also called sCD22; soluble CD22 purified from mammalian cells
T1 sequence: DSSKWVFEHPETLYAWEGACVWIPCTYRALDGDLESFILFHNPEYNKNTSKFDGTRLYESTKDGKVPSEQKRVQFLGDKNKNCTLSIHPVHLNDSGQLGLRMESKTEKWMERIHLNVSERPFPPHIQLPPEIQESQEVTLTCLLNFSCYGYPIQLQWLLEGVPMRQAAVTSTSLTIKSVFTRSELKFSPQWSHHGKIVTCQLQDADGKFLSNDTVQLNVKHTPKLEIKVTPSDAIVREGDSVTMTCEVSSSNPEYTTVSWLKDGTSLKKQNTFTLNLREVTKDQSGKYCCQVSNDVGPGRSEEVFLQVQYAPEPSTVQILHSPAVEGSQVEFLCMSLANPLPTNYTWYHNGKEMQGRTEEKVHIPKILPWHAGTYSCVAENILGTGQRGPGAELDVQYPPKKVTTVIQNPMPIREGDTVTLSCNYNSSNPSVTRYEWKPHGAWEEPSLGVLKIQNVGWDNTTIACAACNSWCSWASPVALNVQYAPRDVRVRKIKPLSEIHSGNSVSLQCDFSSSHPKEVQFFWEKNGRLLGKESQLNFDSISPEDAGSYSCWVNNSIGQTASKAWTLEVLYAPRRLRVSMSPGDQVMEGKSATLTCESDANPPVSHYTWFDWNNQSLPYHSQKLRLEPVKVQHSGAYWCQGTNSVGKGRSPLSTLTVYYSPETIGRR
The assay can be described thus: ELISA, Fab on coated soluble CD22. On the technique in general: ELISA stands for enzyme-linked immunosorbent assay.
Experimental: (§1) CD22 or CD22-Fc in PBS was coated to a 96-well plate overnight at 4° C. The plate was then washed with PBST (PBS+0.05% Tween) and blocked with PBST supplemented with 5% dry milk. Fab, scFv or IgG1 diluted in PBST+milk was added to the wells. The Fab and scFv binding was detected using the anti-His-IgG-HRP (Qiagen) and the IgG1 binding was detected using the anti-human Fc-IgG-HRP (Sigma, St. Louis, Mo.). After washing, ABTS substrate (Roche, Mannheim, Germany) was added to each well and OD₄₀₅ was recorded after five to ten minutes.

In assay [2] the target is T1, Soluble CD22 (PeproTech). The assay can be described thus: ELISA, Fab on coated soluble CD22; reference Fab m971.
The target in assay [3] is T1, Soluble CD22 (PeproTech). The assay is described as follows: ELISA, IgG1 on coated soluble CD22.
Experimental: as §1
Assay [4] addresses T2, native, cell surface-associated CD22 on B lymphoma cell lines (Raji, BJAB, ST486) (human, UniProt P20273 20-847).
T2 construct: Endogenous CD22 of Raji, BJAB and ST486 cells; the cell line is named under assay; also called cell surface CD22; cell-associated CD22
T2 sequence: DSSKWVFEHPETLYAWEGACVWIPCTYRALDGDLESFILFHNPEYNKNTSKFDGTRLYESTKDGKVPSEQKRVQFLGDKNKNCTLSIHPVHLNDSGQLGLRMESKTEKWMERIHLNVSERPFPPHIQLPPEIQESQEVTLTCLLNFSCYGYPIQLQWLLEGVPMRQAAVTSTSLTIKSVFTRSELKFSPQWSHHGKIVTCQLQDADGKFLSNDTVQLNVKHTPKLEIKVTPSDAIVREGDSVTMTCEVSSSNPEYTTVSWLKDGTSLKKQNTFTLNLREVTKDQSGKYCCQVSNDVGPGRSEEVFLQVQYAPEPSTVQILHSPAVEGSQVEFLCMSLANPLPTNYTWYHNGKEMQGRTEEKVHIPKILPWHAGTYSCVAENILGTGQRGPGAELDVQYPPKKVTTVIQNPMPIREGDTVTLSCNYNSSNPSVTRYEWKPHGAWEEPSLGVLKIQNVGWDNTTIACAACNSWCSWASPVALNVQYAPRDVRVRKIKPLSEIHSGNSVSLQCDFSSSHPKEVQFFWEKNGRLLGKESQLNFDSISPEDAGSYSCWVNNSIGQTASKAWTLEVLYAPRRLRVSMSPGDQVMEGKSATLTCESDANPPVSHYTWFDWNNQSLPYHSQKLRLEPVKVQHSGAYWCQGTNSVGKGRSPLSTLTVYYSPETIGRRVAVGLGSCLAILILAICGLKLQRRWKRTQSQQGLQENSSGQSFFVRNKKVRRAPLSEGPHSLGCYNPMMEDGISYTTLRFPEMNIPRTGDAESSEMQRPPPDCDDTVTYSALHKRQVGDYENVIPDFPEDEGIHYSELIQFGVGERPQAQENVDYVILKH
The assay is described as follows: flow cytometry titration on BJAB cells, apparent affinity from median fluorescence against concentration.
Experimental: SupT1, Raji, BJAB, and ST486 cells in suspension culture were collected by centrifugation and then re-suspended in ice-cold RPMI+10% FBS medium at a density of 1×10⁶/ml. ScFv or IgG1 at different concentrations were added to the cells. Cells were left on ice for half an hour before being washed with the same complete RPMI medium. […] For IgG1, anti-human-IgG-FITC was added to the cells. The cells were then washed with RPMI medium twice and re-suspended in PBS and subjected to flow cytometry analysis using the FACSCalibur™ (Becton Dickinson, San Jose, Calif.)
The binding characteristics of the two IgGs to cell surface-associated CD22 was further analyzed by using increasing concentrations of both IgGs against BJAB cells in a flow cytometry assay.

The term EC50 denotes the concentration that produces a half-maximal response. High values mean a less potent agent, low ones a more potent agent.

B1: Fab m972 (Fab, V domains shown)
VH: EVQLVQSGGGVVRPGGSLRLPCAASGFTFDDYGMSWVRQAPGKGLEWVSGINWNGGSTGYADSVKGRFTISRDNAKNSLYLQMNSLRAEDTALYHCARGGDDAFDIWGQGTMVTVSS
VL: RIVMTQSPGTLSVSPGETATLSCRASQSFSNMLAWYQQKSGQPPRLLIYGVSTRAAGVPARFSGSGSGTEFTLTISNLQSEDFAVYYCQQYGDWPRYTFGQGTKVERKR
notes: Human Fab from a naive Fab phage library, expressed in E. coli HB2151; also called m972 Fab
In the case of B1, the EC50 with Soluble CD22 (PeproTech) [1] amounted to 2 nM. The “fold better binding than m971” value with Soluble CD22 (PeproTech) [2] was found to be 10 fold.

B2: IgG1 m972 (antibody, V domains shown)
VH: B1 VH
VL: B1 VL
notes: IgG1 format made by moving the heavy and light chains of the clone into pDR12, expressed in 293 free style cells; also called m972 IgG1; not shown: rest of the human IgG1 heavy chain constant region from vector pDR12
As for B2, in the assay with Soluble CD22 (PeproTech) [3], the EC50 is < 1 nM. Also, the Kd in assay [4] was ~15 nM.
